According to paper PMC10093973, “The RNA-Binding and RNA-Melting Activities of the Multifunctional Protein Nucleobindin 1” (International Journal of Molecular Sciences, 2023):

T1: NUCB1 ΔZ (Homo sapiens) (UniProt Q02818)
T1 sequence: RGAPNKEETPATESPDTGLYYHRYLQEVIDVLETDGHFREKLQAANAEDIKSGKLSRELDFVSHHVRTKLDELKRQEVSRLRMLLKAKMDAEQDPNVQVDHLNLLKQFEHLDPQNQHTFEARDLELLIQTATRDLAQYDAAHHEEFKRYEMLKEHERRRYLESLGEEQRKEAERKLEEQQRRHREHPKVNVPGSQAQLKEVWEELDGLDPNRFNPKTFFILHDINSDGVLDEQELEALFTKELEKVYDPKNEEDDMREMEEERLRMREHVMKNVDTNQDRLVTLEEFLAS

T2: NUCB1 CaBD (Homo sapiens) (UniProt Q02818)
T2 sequence: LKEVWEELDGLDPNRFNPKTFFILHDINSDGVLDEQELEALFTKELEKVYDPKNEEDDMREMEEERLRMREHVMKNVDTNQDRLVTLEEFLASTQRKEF

T3: NUCB1 ΔN (Homo sapiens) (UniProt Q02818)
T3 sequence: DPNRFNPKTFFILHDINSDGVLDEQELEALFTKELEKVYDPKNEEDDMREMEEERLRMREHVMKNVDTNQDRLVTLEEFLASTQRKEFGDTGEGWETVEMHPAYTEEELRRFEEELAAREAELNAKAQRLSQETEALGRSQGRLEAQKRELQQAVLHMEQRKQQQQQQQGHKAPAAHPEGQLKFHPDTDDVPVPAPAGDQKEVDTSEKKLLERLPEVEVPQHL

T4: NUCB1 ΔZ (Homo sapiens, UniProt Q02818 31-320)
T4 sequence: T1 sequence

T5: NUCB1 ΔN (Homo sapiens, UniProt Q02818 239-461)
T5 sequence: T3 sequence

T6: NUCB1 CaBD (Homo sapiens, UniProt Q02818 228-326)
T6 sequence: T2 sequence

B1: Nucleobindin 1 (NUCB1) lacking the signal peptide (1-30 aa) (natural protein, human, UniProt Q02818 31-461, looked up)
chain: RGAPNKEETPATESPDTGLYYHRYLQEVIDVLETDGHFREKLQAANAEDIKSGKLSRELDFVSHHVRTKLDELKRQEVSRLRMLLKAKMDAEQDPNVQVDHLNLLKQFEHLDPQNQHTFEARDLELLIQTATRDLAQYDAAHHEEFKRYEMLKEHERRRYLESLGEEQRKEAERKLEEQQRRHREHPKVNVPGSQAQLKEVWEELDGLDPNRFNPKTFFILHDINSDGVLDEQELEALFTKELEKVYDPKNEEDDMREMEEERLRMREHVMKNVDTNQDRLVTLEEFLASTQRKEFGDTGEGWETVEMHPAYTEEELRRFEEELAAREAELNAKAQRLSQETEALGRSQGRLEAQKRELQQAVLHMEQRKQQQQQQQGHKAPAAHPEGQLKFHPDTDDVPVPAPAGDQKEVDTSEKKLLERLPEVEVPQHL
notes: the C-terminal limit 461 is the one printed for NUCB1 ΔN, which was made with the same reverse primer; Cloned in pET-28a between EcoR I and Hind III from a HEK293T cDNA library; No removal of the His6 tag is described; also called Calnuc; intact NUCB1; source: E. coli BL21(DE3)/pRARE, purified (Ni-NTA agarose; analysed by SEC on Superdex 200)
B2: NUCB1 ΔN (239-461 aa) (domain or fragment, human, UniProt Q02818 239-461, looked up)
chain: T3 sequence
notes: Cloned in pET-28a; source: E. coli BL21(DE3)/pRARE, purified (Ni-NTA agarose; analysed by SEC on Superdex 200)

How the values were obtained:
NUCB1 ΔZ (Homo sapiens) = target: T1, NUCB1 ΔZ (Homo sapiens); experiment: SPR; settings: SPR: 50 mM Tris-HCl pH 8.0, 200 mM NaCl, 0.1% Tween-20, with or without 2 mM CaCl2, 25 °C; 5'-biotinylated RNA immobilized, NUCB1 as analyte, 1:1 model
[1] = target: T2, NUCB1 CaBD (Homo sapiens); experiment: SPR; settings: SPR: 50 mM Tris-HCl pH 8.0, 200 mM NaCl, 0.1% Tween-20, with or without 2 mM CaCl2, 25 °C; 5'-biotinylated RNA immobilized, NUCB1 as analyte, 1:1 model
NUCB1 ΔN (Homo sapiens) = target: T3, NUCB1 ΔN (Homo sapiens); experiment: SPR; settings: SPR: 50 mM Tris-HCl pH 8.0, 200 mM NaCl, 0.1% Tween-20, with or without 2 mM CaCl2, 25 °C; 5'-biotinylated RNA immobilized, NUCB1 as analyte, 1:1 model
NUCB1 ΔZ = target: T4, NUCB1 ΔZ; experiment: SPR; SPR: 50 mM Tris-HCl pH 8.0, 200 mM NaCl, 0.1% Tween-20, with or without 2 mM CaCl2, 25 °C; 5'-biotinylated RNA immobilized, NUCB1 as analyte, 1:1 model; settings: protein: recombinant; tags: N-terminal His6; label: 5'-biotin
NUCB1 ΔN = target: T5, NUCB1 ΔN; experiment: as above; settings: protein: recombinant; tags: N-terminal His6; label: 5'-biotin
NUCB1 CaBD = target: T6, NUCB1 CaBD; experiment: as above; settings: protein: recombinant; tags: N-terminal His6; label: 5'-biotin
[2] = target: the molecule itself; experiment: SEC; size-exclusion chromatography of the final preparations on Superdex 200 in 150 mM NaCl, 50 mM Tris-HCl (pH 8.0); oligomeric state of each protein

Row | Molecule | Kd (NUCB1 ΔZ (Homo sapiens)) [nM] | Kd [1] [nM] | Kd (NUCB1 ΔN (Homo sapiens)) [nM] | stoichiometry N [2] | other results
1 | GUGGUCAGUCGAGUGGAAAAAAAAAAAAAAAAAA [A-rich] | 0.3 | 5.7 | 1.4 |  | 
2 | GUGGUCAGUCGAGUGGGGGGGG [G-rich] | 3.1 | 18.2 | 5.3 |  | 
3 | GUGGUCAGUCGAGUGGUUUUUUUUUUUUUUUUUU [U-rich] | 0.4 | 0.2 | 1.7 |  | 
4 | GUGGUCAGUCGAGUGGUAACACUGUCUGGUAACGAUGU (ssRNA) [miR-200a-3p] |  |  |  |  | Kd (NUCB1 ΔZ): 0.3 ± 0.01 nM; Kd (NUCB1 ΔN): 0.6 ± 0.09 nM; Kd (NUCB1 CaBD): 5.2 ± 0.2 nM
5 | B1 |  |  |  | 2 | 
6 | B2 |  |  |  | 2 | 
